Assay results reported in the supplement of paper PMC10567573.

B1: FADS1 (parent)
chain: LNFQIEHHLFPTMPRHNYHKVAPL

Variants of: B1
Assay: protein stability index of a GFP-peptide fusion (GPS, HEK-293T) (PSI 1-6); higher = more stable
Conditions: c terminus: a fixed tail appended
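Further: lentivirally expressed fusions sorted by FACS into six bins by GFP to DsRed ratio, PSI derived from sequencing read proportions per bin multiplied by bin number.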

Going from LNFQIEHHKFPTMPRHNYHKVAPL [L9K] to LNFQIEHHNFPTMPRHNYHKVAPL [L9N], the protein stability index rises from 1.36 to 1.57.

LNFQQEHHLFPTMPRHNYHKVAPL [I5Q] and LNFQHEHHLFPTMPRHNYHKVAPL [I5H] are the same in protein stability index: 1.83 for the first, 1.83 for the second.

Going from LNFQDEHHLFPTMPRHNYHKVAPL [I5D] to LNFQNEHHLFPTMPRHNYHKVAPL [I5N], the protein stability index rises from 2.4 to 2.52.

First: LNFQKEHHLFPTMPRHNYHKVAPL [I5K]
Second: LNFQTEHHLFPTMPRHNYHKVAPL [I5T]
The protein stability index of the first is higher: 2.06 for the first, 1.65 for the second.

First: LNFQEEHHLFPTMPRHNYHKVAPL [I5E]
Second: NNFQIEHHLFPTMPRHNYHKVAPL [L1N]
The protein stability index of the first is higher: 2.1 for the first, 1.95 for the second.

Going from WNFQIEHHLFPTMPRHNYHKVAPL [L1W] to CNFQIEHHLFPTMPRHNYHKVAPL [L1C], the protein stability index falls from 3.02 to 2.11.

Going from ENFQIEHHLFPTMPRHNYHKVAPL [L1E] to HNFQIEHHLFPTMPRHNYHKVAPL [L1H], the protein stability index falls from 2.29 to 2.1.

First: LNFQIEHHLFYTMPRHNYHKVAPL [P11Y]
Second: LNFQIEHHLFHTMPRHNYHKVAPL [P11H]
The protein stability index of the first is lower: 2.96 for the first, 3.14 for the second.

Compared with LNFQIEHHLFLTMPRHNYHKVAPL [P11L], LNFQIEHHLFDTMPRHNYHKVAPL [P11D] is higher in protein stability index: 2.53 for the first, 3.83 for the second.

First: LNFQIEHHLFPTMPRHNCHKVAPL [Y18C]
Second: LNFQIEHHLFPTMPRHNPHKVAPL [Y18P]
The protein stability index of the first is lower: 2.42 for the first, 2.99 for the second.

Compared with LNFQIEHHLFPTMPRHNKHKVAPL [Y18K], LNDQIEHHLFPTMPRHNYHKVAPL [F3D] is higher in protein stability index: 2.25 for the first, 3.03 for the second.

Going from LNLQIEHHLFPTMPRHNYHKVAPL [F3L] to LNKQIEHHLFPTMPRHNYHKVAPL [F3K], the protein stability index rises from 1.73 to 1.88.

Compared with LNVQIEHHLFPTMPRHNYHKVAPL [F3V], LNFQIENHLFPTMPRHNYHKVAPL [H7N] is lower in protein stability index: 1.96 for the first, 1.4 for the second.

Compared with LNFQIEQHLFPTMPRHNYHKVAPL [H7Q], LNFQIEHHLFPTMPRHNYHKVAQL [P23Q] is higher in protein stability index: 2.45 for the first, 2.63 for the second.

Going from LNFQIEHHLFPTMPRHNYHKVASL [P23S] to LNFQIEHHLFPTMPRHNYHKVAML [P23M], the protein stability index rises from 1.88 to 2.06.

First: LNFQIEHHLFPTMPRHNYHKVAGL [P23G]
Second: LNFQIEHHLFPTMPRHNYHKVAIL [P23I]
The protein stability index of the first is higher: 2.97 for the first, 2.42 for the second.

Going from LNFQIEHHLFPTMPRHNYHKVAKL [P23K] to LNFQIEHHLFPTMPRGNYHKVAPL [H16G], the protein stability index falls from 1.54 to 1.24.

Compared with LNFQIEHHLFPTMPRRNYHKVAPL [H16R], LNFQIEHHLFPTMPRINYHKVAPL [H16I] is higher in protein stability index: 2.13 for the first, 2.46 for the second.

First: LNFQIEHHLFPTMPRVNYHKVAPL [H16V]
Second: LNFQIEHHLFPTMPRYNYHKVAPL [H16Y]
The protein stability index of the first is lower: 2.36 for the first, 3.52 for the second.

First: LNFQIEHHLFPTMPRFNYHKVAPL [H16F]
Second: LSFQIEHHLFPTMPRHNYHKVAPL [N2S]
The protein stability index of the first is higher: 2.12 for the first, 1.88 for the second.

Compared with LCFQIEHHLFPTMPRHNYHKVAPL [N2C], LRFQIEHHLFPTMPRHNYHKVAPL [N2R] is higher in protein stability index: 1.98 for the first, 2.09 for the second.

Compared with LNFQIRHHLFPTMPRHNYHKVAPL [E6R], LNFQIAHHLFPTMPRHNYHKVAPL [E6A] is higher in protein stability index: 2.07 for the first, 2.54 for the second.

Compared with LNFQIMHHLFPTMPRHNYHKVAPL [E6M], LNFQICHHLFPTMPRHNYHKVAPL [E6C] is higher in protein stability index: 2.24 for the first, 2.65 for the second.

First: LNFQIQHHLFPTMPRHNYHKVAPL [E6Q]
Second: LNFQIEHHLFPTMPIHNYHKVAPL [R15I]
The protein stability index of the first is lower: 2.38 for the first, 2.88 for the second.

Going from LNFQIEHHLFPTMPWHNYHKVAPL [R15W] to LNFQIEHHLFPTMPGHNYHKVAPL [R15G], the protein stability index rises from 2.99 to 3.15.

Going from LNFQIEHHLFPTMPCHNYHKVAPL [R15C] to LNFQIEHHLFPTMPYHNYHKVAPL [R15Y], the protein stability index rises from 3.14 to 3.31.

Compared with LNFQIEHHLFPTMPEHNYHKVAPL [R15E], LNFQIEHHLDPTMPRHNYHKVAPL [F10D] is lower in protein stability index: 1.81 for the first, 1.74 for the second.

Going from LNFQIEHHLPPTMPRHNYHKVAPL [F10P] to LNFQIEHHLMPTMPRHNYHKVAPL [F10M], the protein stability index rises from 1.24 to 1.37.

Compared with LNFQIEHHLYPTMPRHNYHKVAPL [F10Y], LNFQIEHHLFPPMPRHNYHKVAPL [T12P] is higher in protein stability index: 2.17 for the first, 3.45 for the second.

Compared with LNFQIEHHLFPNMPRHNYHKVAPL [T12N], LNFQIEHHLFPTMPRHNYDKVAPL [H19D] is higher in protein stability index: 1.77 for the first, 3.43 for the second.

Compared with LNFQIEHHLFPTMPRHNYYKVAPL [H19Y], LNFQIEHHLFPTMPRHNYHKVFPL [A22F] is lower in protein stability index: 2.58 for the first, 1.78 for the second.

Going from LNFQIEHHLFPTMPRHNYHKVKPL [A22K] to LNFQIEHHLFPTMPRHNYHKVNPL [A22N], the protein stability index falls from 1.89 to 1.69.

First: LNFQIEHHLFPTCPRHNYHKVAPL [M13C]
Second: LNFQIEHHLFPTWPRHNYHKVAPL [M13W]
The protein stability index of the first is lower: 1.75 for the first, 2.66 for the second.

Going from LNFQIEHHLFPTRPRHNYHKVAPL [M13R] to LNFQIEHHLFPTMLRHNYHKVAPL [P14L], the protein stability index falls from 1.4 to 1.18.

Compared with LNFQIEHHLFPTMTRHNYHKVAPL [P14T], LNFQIEHHLFPTMRRHNYHKVAPL [P14R] is lower in protein stability index: 1.9 for the first, 1.76 for the second.

Compared with LNFQIEHHLFPTMPRHNYHKDAPL [V21D], LNFQIEHHLFPTMPRHNYHKCAPL [V21C] is lower in protein stability index: 2.41 for the first, 2.38 for the second.

First: LNFQIEHHLFPTMPRHNYHKNAPL [V21N]
Second: LNFQIEHHLFPTMPRHNYHKGAPL [V21G]
The protein stability index of the first is lower: 1.58 for the first, 2.38 for the second.

First: LNFQIEHHLFPTMPRHNYHKMAPL [V21M]
Second: LNFPIEHHLFPTMPRHNYHKVAPL [Q4P]
The protein stability index of the first is higher: 2.5 for the first, 1.24 for the second.

First: LNFKIEHHLFPTMPRHNYHKVAPL [Q4K]
Second: LNFTIEHHLFPTMPRHNYHKVAPL [Q4T]
The protein stability index of the first is lower: 1.92 for the first, 2.74 for the second.

Going from LNFQIEHHLFPTMPRHNYHKVAPM [L24M] to LNFQIEHHLFPTMPRHNYHKVAPI [L24I], the protein stability index rises from 1.81 to 3.69.

First: LNFQIEHHLFPTMPRHNYHKVAPP [L24P]
Second: LNFQIEHHLFPTMPRHNYHKVAPT [L24T]
The protein stability index of the first is higher: 2.3 for the first, 1.56 for the second.

Going from LNFQIEHHLFPTMPRHNYHKVAPD [L24D] to LNFQIEHHLFPTMPRHNYHKVAPY [L24Y], the protein stability index rises from 2.03 to 3.02.

Compared with LNFQIEHHLFPTMPRHRYHKVAPL [N17R], LNFQIEHHLFPTMPRHLYHKVAPL [N17L] is higher in protein stability index: 2.48 for the first, 3.08 for the second.

First: LNFQIEHHLFPTMPRHWYHKVAPL [N17W]
Second: LNFQIEHALFPTMPRHNYHKVAPL [H8A]
The protein stability index of the first is higher: 2.84 for the first, 1.87 for the second.

Compared with LNFQIEHNLFPTMPRHNYHKVAPL [H8N], LNFQIEHGLFPTMPRHNYHKVAPL [H8G] is lower in protein stability index: 2.06 for the first, 1.58 for the second.

Going from LNFQIEHTLFPTMPRHNYHKVAPL [H8T] to LNFQIEHFLFPTMPRHNYHKVAPL [H8F], the protein stability index rises from 2.26 to 2.4.

Going from LNFQIEHELFPTMPRHNYHKVAPL [H8E] to LNFQIEHMLFPTMPRHNYHKVAPL [H8M], the protein stability index falls from 3.1 to 2.14.
